This is an account of results in patent US20250346683A1 (AstraZeneca / MedImmune, published 2025).

This test concerns the target T1, human endothelial lipase (EL) (human, UniProt Q9Y5X9 21-500).
T1 construct: also called human EL; LIPG gene product
T1 sequence (looked up): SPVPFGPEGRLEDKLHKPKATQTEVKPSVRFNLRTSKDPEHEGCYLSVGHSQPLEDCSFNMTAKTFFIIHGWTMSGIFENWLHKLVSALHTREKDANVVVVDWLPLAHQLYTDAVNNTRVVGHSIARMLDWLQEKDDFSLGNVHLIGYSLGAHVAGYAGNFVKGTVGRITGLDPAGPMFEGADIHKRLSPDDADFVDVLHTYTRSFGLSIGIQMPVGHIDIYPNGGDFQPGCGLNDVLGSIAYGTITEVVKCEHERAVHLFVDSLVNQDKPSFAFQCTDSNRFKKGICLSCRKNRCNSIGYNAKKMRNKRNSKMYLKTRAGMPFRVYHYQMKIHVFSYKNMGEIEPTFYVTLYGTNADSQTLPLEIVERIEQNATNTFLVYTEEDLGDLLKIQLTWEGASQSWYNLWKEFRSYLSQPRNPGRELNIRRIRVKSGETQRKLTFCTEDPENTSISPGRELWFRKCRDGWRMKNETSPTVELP
The test is described as follows: sandwich ECL immunoassay (MSD): MEDI5884 coated as capture, EL from plasma or reference standard as analyte, biotinylated anti-human EL antibody (OriGene) as detection. The method, then: Sandwich immunoassay was developed for the detection human EL utilizing ECL readout. An MSD (MesoScale Discovery) plate was coated with 5 μg/ml of MEDI5884, at 50 μl/well, incubated at 4° C. on a flat surface and subsequently washed 3× with 300 μl/well of ELISA Wash Buffer. The assay plate(s) were blocked with 150 μl/well of I Block Buffer (IBB) for ≥60 min on an orbital plate shaker at room temperature (RT). Reference standards (RS), quality control (QC) and negative control (NC), prepared in IBB, and test samples were added to the plates at 35 μl/well. Samples that had been previously tested determined the minimally required dilution ratio (MRD) as two (2) for plasma samples. The assay plate(s) were incubated at RT on a plate shaker with gentle shaking for 60 minutes±10 minutes. Unbound analyte was removed by washing the plate(s) with ELISA wash buffer. To detect the captured analyte, 1 μg/ml of biotinylated anti-human EL monoclonal antibody (OriGene) was added at 35 μl/well and incubated for an additional 60 minutes±10 minutes at RT on a plate shaker. Unbound detection antibody was removed by washing the plate(s). […] Plates were washed again and Read Buffer was added at 150 μl/well. Signal was read on a MSD sector imager instrument within 20 minutes of addition of the Read Buffer. […]

B1: MEDI5884 (antibody, human IgG4 S228P, kappa, V domains shown)
VH: QVQLVQSGSELKKPGASVKVSCKASGYTFTNYALNWVRQAPGQGLEWMGWINTYSGVGTYAGEFKGRFVFSLDTSVSTAYLQISSLKAEDTAVYYCARRGFYGRRFFDVWGKGTTVTVSS
VL: DIQLTQSPSSLSASVGDRVTITCKASQSVDYDVDSYMHWYQQKPGKAPKLLIYAASNLASGVPSRFSGSGSGTDFTFTISSLQPEDIATYYCQQTIEDPPTFGGGTKVEIKR
notes: It was coated on the MSD plate as the capture reagent
Consider B1, for which the binding result is listed as “binds”.
